We go through 26 molecules from US8357523B2, “Beta-glucosidase variant enzymes and related polynucleotides” (Codexis, Inc., priority 2009, dated 2013).

B1: 1 (protein)
chain: STAIAQEGAAPAAILHPEKWPRPATQRLIDPAVEKRVDALLKQLSVEEKVGQVIQGDIGTITPEDLRKYPLGSILAGGNSGPNGDDRAPPKEWLDLADAFYRVSLEKRPGHTPIPVLFGIDAVHGHGNIGSATIFPHNIALGATHDPELLRRIGEVTAVEMAATGIDWTFAPALSVVRDDRWGRTYEGFSEDPEIVAAYSAAIVESVQGKFGSKDFMAPGRIVASAKHFLADGGTDQGRDQGDARISEDELIRIHNAGYPPAIDAGVLTVMASFSSWQGIKHHGHKQLLTDVLKGQMGFNGFIVGDWNAHDQVPGCTKFNCPTSLIAGLDMYMAADSWKQLYENTLAQVKDGTIPMARLDDAVRRILRVKVLAGLFEKPAPKDRPGLPGLETLGSPEHRAVGREAVRKSLVLLKNDKGTLPLSPKARVLVAGDGADNIGKQSGGWTISWQGTGNRNDEFPGATSILGGIRDAVADAGGSVEFDVAGQYKTKPDVAIVVFGEEPYAEFQGDVETLEYQPDQKQDLALLKKLKDQGIPVVAVFLSGRPMWVNPELNASDAFVAAWLPGTEGGGVADVLFTDKAGKVQHDFAGKLSYSWPRTAAQTTVNRGDADYNPLFAYGYGLTYKDKSKVGTLPEESGVPAEARQNAGIYFRAGALRLPGRFL
B2: 10 (protein)
chain: B1 chain with A198M, S206G
B3: 4 (protein)
chain: B1 chain with S206G, D311G, D532G, T599A
B4: 26 (protein)
chain: B1 chain with A202F, S206G
B5: 21 (protein)
chain: B1 chain with V159Q, S206G
B6: 17 (protein)
chain: B1 chain with S206G, P219M
B7: 7 (protein)
chain: B1 chain with S206G, F211Y
B8: 15 (protein)
chain: B1 chain with R151P, S206G
B9: 6 (protein)
chain: B1 chain with A162S, S206G
B10: 23 (protein)
chain: B1 chain with A202P, S206G
B11: 11 (protein)
chain: B1 chain with V159L, S206G
B12: 19 (protein)
chain: B1 chain with A198L, S206G
B13: 2 (protein)
chain: B1 chain with N128K, S206G
B14: 25 (protein)
chain: B1 chain with R151P, S206G
B15: 20 (protein)
chain: B1 chain with A198N, S206G
B16: 14 (protein)
chain: B1 chain with D146S, S206G
B17: 22 (protein)
chain: B1 chain with V159I, S206G
B18: 16 (protein)
chain: B1 chain with A198S, S206G
B19: 3 (protein)
chain: B1 chain with S206G, Q287E
B20: 8 (protein)
chain: B1 chain with A162T, S206G
B21: 12 (protein)
chain: B1 chain with A202N, S206G
B22: 13 (protein)
chain: B1 chain with A198C, S206G
B23: 18 (protein)
chain: B1 chain with V159A, S206G
B24: 9 (protein)
chain: B1 chain with A201G, S206G
B25: 24 (protein)
chain: B1 chain with S206G, P219V
B26: 5 (protein)
chain: B1 chain with H145R, S206G

Residue numbers refer to the chain shown, from its start.

The data set can be described thus: High throughput cellobiose assay: fold improvement in cellobiase activity of CelA variants over a control enzyme (Tables 2A-2D, 3, 5, 6, 7). Particulars: 3.3 g/l cellobiose, 50° C. and pH 6.5; compared to native CelA (SEQ ID NO: 4). In kind it is biochemical. Here is the method:
β-glucosidase activity was also determined using a cellobiose assay, which used cellobiose as substrate. In a total volume of 100 μL, 25 μL clear media supernatant containing CelA enzyme was added to 10 g/L cellobiose (Fluka Cat. No. 22150, Sigma-Aldrich, Inc., St. Louis, Mo.) in 100 mM sodium phosphate buffer (pH 6-7) or sodium acetate buffer (pH 5-5.5). The reaction was incubated at 45-70° C. for an appropriate time (25 minutes to overnight depending on the enzyme concentration) while shaking. Glucose production was determined using an enzymatic glucose assay (K-GLUC, Megazyme, Ireland). 10 μl of each reaction was added to 190 μl GOPOD reagent (supplied as part of the K-GLUC assay kit). The reaction was incubated at 45° C. for 20 minutes and the absorbance of the solution was measured at 510 nm. The GOPOD reagent contains 50 mM Potassium phosphate buffer pH7.4, 0.011M p-hydroxybenzoic acid, 0.008% w/v sodium azide, glucose oxidase (>12,000 U/L), peroxidase (>650 U/L) and 80 mg/L 4-aminoantipyrine. The glucose oxidase enzyme in the reagent reacts with any glucose present in the sample and produces hydrogen peroxide which then reacts with the 4-aminoantipyrine to produce a quinoneimine dye in quantities proportionate with the amount of glucose present and can be measured spectrophotometrically at 510 nm. Detectable β-glucosidase activity was observed under high throughput screening conditions (i.e., pH 7, 50° C.).
Plasmid libraries containing variant CelA genes were transformed into B. megaterium and plated on Luria-Bertani (LB) agar plates containing 3 μg/mL tetracycline with a DM3 regeneration media overlay (400 mM sodium succinate dibasic, pH 7.3, 0.5% casamino acids, 0.5% yeast extract, 0.4% K2HPO4, 0.2% KH2PO4, 20 mM MgCl2, 0.5% glucose and 0.2% BSA). After incubation for at least 18 hours at 30° C., colonies were picked using a Q-bot® robotic colony picker (Genetix USA, Inc., Beaverton, Oreg.) into shallow, 96-well well microtiter plates containing 180 μL, LB and 10 μg/mL tetracycline. Cells were grown overnight at 37° C. with shaking at 200 rpm and 85% humidity. 10 μL of this culture was then transferred into 96-well microtiter plates (deep well) containing 390 μL A5-glucose-xylose medium and 10 μg/mL tetracycline as described in example 2. The plates were then incubated at 37° C. with shaking at 250 rpm and 85% humidity overnight (˜18-24 hours). The deep plates were centrifuged at 4000 rpm for 15 minutes and the clear media supernatant containing the secreted CelA enzyme was used for the high throughput pNPG or cellobiose assay of Example 5.
The CelA libraries were screened in high throughput using the cellobiose assay of Example 5 (Substrate: cellobiose; pH: 5-7; temperature: 45-72° C.; time: 2-24 hrs) for the identification of improved variants.
In shallow, 96-well microtiter plates 25 μL of media supernatant was added to 75 μL of […] cellobiose in 150 mM sodium acetate buffer pH 5-5.5 or 150 mM sodium phosphate buffer pH6-7. After sealing with aluminum/polypropylene laminate heat seal tape (Velocity 11 (Menlo Park, Calif.), Cat#06643-001), the plates were shaken at 45-65° C. for up to 24 hrs. The plates were centrifuged for 5 minutes at 4000 rpm. In shallow well clear microtiter plates, 10 μL of the reaction mixture was added to 190 μL of GOPOD reagent (as in example 5B) per well. The solutions were incubated at 45° C. for 1 hour and absorbance was measured at 510 nm for the identification of active CelA variants.
Improved CelA variants were identified from the high throughput screening of various CelA variant libraries as described in Example 7, using the cellobiose assay of Example 5 using 3.3 g/l cellobiose at temperatures from 50°-55° C. at a pH in the range of 5.3-6.5. Tables 2A, 2B, 2C, and 2D and Table 3 depict the improvement in activities of CelA variants encompassed by the invention. The assay conditions are indicated in each table. […]
Regarding B1, the “Fold improvement over wildtype CelA” value is given as “+ (+ = 1.1 to 2.0 fold improvement over native CelA (SEQ ID NO: 4))”.
As for B2, the entry is “+ (+ = 1.1 to 2.0 fold improvement over native CelA (SEQ ID NO: 4))”; as for B3, “+ (+ = 1.1 to 2.0 fold improvement over native CelA (SEQ ID NO: 4))”.
In the case of B4 it was “+ (+ = 1.1 to 2.0 fold improvement over native CelA (SEQ ID NO: 4))”.
For B5, the “Fold improvement over wildtype CelA” value is “+ (+ = 1.1 to 2.0 fold improvement over native CelA (SEQ ID NO: 4))”.
In the case of B6 it was “+ (+ = 1.1 to 2.0 fold improvement over native CelA (SEQ ID NO: 4))”; in that of B7, “++ (++ = 2.1 to 2.6 fold improvement over native CelA (SEQ ID NO: 4))”; in that of B8, “+ (+ = 1.1 to 2.0 fold improvement over native CelA (SEQ ID NO: 4))”.
In the case of B9 it was “+ (+ = 1.1 to 2.0 fold improvement over native CelA (SEQ ID NO: 4))”.
As for B10, the entry is “+ (+ = 1.1 to 2.0 fold improvement over native CelA (SEQ ID NO: 4))”.
Take B11: the “Fold improvement over wildtype CelA” value is listed as “+ (+ = 1.1 to 2.0 fold improvement over native CelA (SEQ ID NO: 4))”.
On to B12, for which the “Fold improvement over wildtype CelA” value is given as “+ (+ = 1.1 to 2.0 fold improvement over native CelA (SEQ ID NO: 4))”.
In the case of B13 it was “+ (+ = 1.1 to 2.0 fold improvement over native CelA (SEQ ID NO: 4))”; in that of B14, “+ (+ = 1.1 to 2.0 fold improvement over native CelA (SEQ ID NO: 4))”.
As for B15, the entry is “+ (+ = 1.1 to 2.0 fold improvement over native CelA (SEQ ID NO: 4))”; as for B16, “++ (++ = 2.1 to 2.6 fold improvement over native CelA (SEQ ID NO: 4))”.
As for B17, the entry is “+ (+ = 1.1 to 2.0 fold improvement over native CelA (SEQ ID NO: 4))”; as for B18, “+ (+ = 1.1 to 2.0 fold improvement over native CelA (SEQ ID NO: 4))”; as for B19, “+ (+ = 1.1 to 2.0 fold improvement over native CelA (SEQ ID NO: 4))”.
For B20, the “Fold improvement over wildtype CelA” value is on record as “+ (+ = 1.1 to 2.0 fold improvement over native CelA (SEQ ID NO: 4))”.
In the case of B21 it was “+ (+ = 1.1 to 2.0 fold improvement over native CelA (SEQ ID NO: 4))”; in that of B22, “+ (+ = 1.1 to 2.0 fold improvement over native CelA (SEQ ID NO: 4))”.
With B23, the “Fold improvement over wildtype CelA” value is “+ (+ = 1.1 to 2.0 fold improvement over native CelA (SEQ ID NO: 4))”.
In the case of B24, the “Fold improvement over wildtype CelA” value is on record as “+ (+ = 1.1 to 2.0 fold improvement over native CelA (SEQ ID NO: 4))”.
In the case of B25 it was “+ (+ = 1.1 to 2.0 fold improvement over native CelA (SEQ ID NO: 4))”.
As for B26, the entry is “+ (+ = 1.1 to 2.0 fold improvement over native CelA (SEQ ID NO: 4))”.
